Data as given in publication doi:10.1101/2024.03.26.586731.
One block for each substance: values may come before it.

How the values were obtained:
Assay in all cases: high-speed atomic force microscopy
IgG1-DNP-E430G (human) = molecular target: IgG1-DNP-E430G (human)
IgG2-DNP-E430G (human) = molecular target: IgG2-DNP-E430G (human)
IgG3-DNP-E430G (human) = molecular target: IgG3-DNP-E430G (human)
IgG4-DNP-E430G (human) = molecular target: IgG4-DNP-E430G (human)

stoichiometry N (IgG1-DNP-E430G (human)): < 6
Substance: IgG1-DNP-E430G (antibody)

stoichiometry N (IgG2-DNP-E430G (human)): < 6
Substance: IgG2-DNP-E430G (antibody)

stoichiometry N (IgG3-DNP-E430G (human)): < 6
Substance: IgG3-DNP-E430G (antibody)

stoichiometry N (IgG4-DNP-E430G (human)): < 6
Substance: IgG4-DNP-E430G (antibody)
